{"source": "patent US20240101687A1", "about": "(ABL BIO, published 2024)", "binders": {"B1": {"name": "chimeric 11F11 antibody (antibody, V domains shown)", "VH": "EVQLQESGGGLVQPGGSLRLSCATSGFTFSDFYMEWVRQPPGKRLEWIAASRNKANDYTTEYSASVKGRFIVSRDTSQSILYLQMNALRAEDTAIYYCARDAHGKPFAYWGQGTLVTVSA", "VL": "not shown", "notes": "also called Ch11F11; ch11F11"}, "B2": {"name": "1564 IgG (antibody, V domains shown)", "VH": "EVQLLESGGGLVQPGGSLRLSCAASGFTFSSYDMSWVRQAPGKGLEWVSAISYDNGNTYYADSVKGRFTISRDNSKNTLYLQMNSLRAEDTAVYYCAKGVLTTLMNWFDYWGQGTLVTVSS", "VL": "QSVLTQPPSASGTPGQRVTISCTGSSSNIGSNDVSWYQQLPGTAPKLLIYANSNRPSGVSDRFSGSKSGTSASLAISGLRSEDEADYYCGAWDDSLNGYVFGGGTKLTVLR"}}, "key": {"[1]": {"molecular_target": "T1, mouse IGF1R on bEND.3 brain endothelial cells (mouse, UniProt Q60751 31-1373)", "T1 construct": "whole, on cells; also called IGF1R expressed on the surface of brain endothelial cells", "T1 sequence (Q60751 31-1373)": "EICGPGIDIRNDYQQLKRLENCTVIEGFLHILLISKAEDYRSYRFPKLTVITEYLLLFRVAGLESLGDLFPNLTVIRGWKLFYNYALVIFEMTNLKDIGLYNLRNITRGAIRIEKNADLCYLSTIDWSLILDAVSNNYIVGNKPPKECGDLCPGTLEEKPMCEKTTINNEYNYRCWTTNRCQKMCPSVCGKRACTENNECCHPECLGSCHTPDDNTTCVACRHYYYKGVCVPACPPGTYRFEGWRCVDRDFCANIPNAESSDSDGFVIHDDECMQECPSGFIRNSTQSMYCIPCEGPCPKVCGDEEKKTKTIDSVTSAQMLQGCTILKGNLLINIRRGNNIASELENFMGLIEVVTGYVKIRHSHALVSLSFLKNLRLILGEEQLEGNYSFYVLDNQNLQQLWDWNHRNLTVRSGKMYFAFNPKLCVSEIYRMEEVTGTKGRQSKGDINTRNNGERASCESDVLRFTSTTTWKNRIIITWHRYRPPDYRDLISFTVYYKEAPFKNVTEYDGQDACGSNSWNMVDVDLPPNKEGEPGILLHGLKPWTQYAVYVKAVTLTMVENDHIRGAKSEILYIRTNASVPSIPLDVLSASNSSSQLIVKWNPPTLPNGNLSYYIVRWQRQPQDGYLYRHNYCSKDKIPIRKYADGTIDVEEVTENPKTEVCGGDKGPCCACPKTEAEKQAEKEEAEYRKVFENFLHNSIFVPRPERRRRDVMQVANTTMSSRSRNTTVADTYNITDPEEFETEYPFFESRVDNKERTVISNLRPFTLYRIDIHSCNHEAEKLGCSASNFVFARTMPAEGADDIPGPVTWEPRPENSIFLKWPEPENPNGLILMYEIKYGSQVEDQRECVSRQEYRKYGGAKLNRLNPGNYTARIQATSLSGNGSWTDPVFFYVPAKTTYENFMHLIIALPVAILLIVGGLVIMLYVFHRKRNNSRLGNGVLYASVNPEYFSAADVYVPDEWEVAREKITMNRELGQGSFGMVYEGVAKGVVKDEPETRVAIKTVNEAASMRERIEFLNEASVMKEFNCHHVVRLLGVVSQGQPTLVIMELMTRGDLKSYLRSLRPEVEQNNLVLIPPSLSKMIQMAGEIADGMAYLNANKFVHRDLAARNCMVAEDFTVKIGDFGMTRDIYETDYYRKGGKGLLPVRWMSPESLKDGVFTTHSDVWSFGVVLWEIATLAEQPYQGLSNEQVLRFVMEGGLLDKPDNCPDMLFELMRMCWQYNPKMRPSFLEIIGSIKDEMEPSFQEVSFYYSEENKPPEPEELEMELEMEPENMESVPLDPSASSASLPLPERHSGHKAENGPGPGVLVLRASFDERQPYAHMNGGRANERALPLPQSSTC", "experiment": "FACS on bEND.3 mouse brain endothelial cells"}, "[2]": {"molecular_target": "T2, human alpha-synuclein aggregates (fibrils) (human, UniProt P37840 1-140)", "experiment": "ELISA, alpha-synuclein aggregates coated at 1 ug/ml, antibody titrated 5-fold from 400 nM, anti-human Fc-HRP; C of the 4-P fit", "description": "(§1) The alpha-synuclein aggregates were coated on a 96-well plate at a concentration of 1 ug/ml for 18 hours, and after washing, was treated with each antibody by diluting by 5 times from 400 nM. The bound antibodies were bound to anti-human Fc-HRP and then performed by color development with TMB solution, to measure the degree of binding of the antibody."}, "[3]": {"molecular_target": "T2, human alpha-synuclein aggregates …", "experiment": "SPR (BIAcore), antibody captured on Protein A chip, alpha-synuclein fibril (sample aSyn180330) as analyte, 1:1 binding fit, 25 C", "description": "(§2) The running buffer, analyte dilution, and the sample dilution buffer were HBS-EP. […] For the capture, the monomer was for RU of 800 (theoretical), and a fibril was for RU of 100 (theoretical). The capture phase was performed at contact time of 60 seconds, a flow rate of 30 μl/min, and a stabilization period of 180 seconds. The association phase was performed at the association time of 120 seconds and the flow rate was 30 μl/min. The dissociation phase was performed at the dissociation time of 360 seconds and the flow rate of 30 l/min. The regeneration phase was performed twice time at the regeneration time of 240 seconds (primary) and 60 seconds (secondary) and a flow rate of 30 μl/min. The fitting was carried out suing 1:1 binding model, and the evaluation software was BIACore T200 Evaluation software (GE healthcare)."}, "[4]": {"molecular_target": "T3, human IGF1R extracellular domain, His-tagged (human, UniProt P08069 31-932)", "T3 construct": "Bought (R&D Systems 391-GR or Sino Biological 10164-H08H); also called recombinant IGF1R; ECD of IGF1R", "experiment": "ELISA on coated IGF1R, antibody titrated up to 400 nM; C of the 4-P fit, D 2.68; curve at baseline up to about 3 nM, about 0.8 at 80 nM and 1.75 at 400 nM, no plateau in the data; the text says the single antibody did not bind"}, "[5]": {"molecular_target": "T4, Aβ42 (Monomer) (human, UniProt P05067)", "T4 construct": "recombinant, monomer (not aggregated); m20 is the aggregated form; also called amyloid beta1-42 monomer", "experiment": "dot blot, monomer and fibril of each protein spotted in rising amounts, antibody as probe", "description": "(§3) The specific binding ability of the antibodies to the alpha-synuclein aggregate was analyzed by reacting with a blot."}, "[6]": {"molecular_target": "T5, amyloid beta1-42 aggregates (UniProt P05067 672-713)", "T5 construct": "domain: amyloid beta1-42; aggregates prepared by Prof; Seung-jae Lee; also called amyloid beta1-42-derived aggregates", "experiment": "dot blot, monomer and fibril of each protein spotted in rising amounts, antibody as probe", "description": "as §3"}, "[7]": {"molecular_target": "T3, human IGF1R extracellular domain, …", "experiment": "ELISA on coated IGF1R, antibody titrated up to 400 nM; C of the 4-P fit, D 0.945; curve at baseline up to 16 nM, about 0.2 at 80 nM and 0.75 at 400 nM, no plateau in the data; the text says the single antibody did not bind"}, "[8]": {"molecular_target": "T2, human alpha-synuclein aggregates …", "experiment": "SPR (BIAcore), antibody captured on Protein A chip, alpha-Syn fibril as analyte, 1:1 binding fit, 25 C"}, "[9]": {"molecular_target": "T6, human beta-synuclein (human, UniProt Q16143 1-134, limits assumed)", "T6 construct": "bought", "T6 sequence (Q16143 whole entry)": "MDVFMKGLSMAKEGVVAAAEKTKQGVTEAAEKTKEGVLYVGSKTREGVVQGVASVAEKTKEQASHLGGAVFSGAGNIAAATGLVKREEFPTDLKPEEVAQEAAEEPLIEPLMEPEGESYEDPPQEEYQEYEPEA", "experiment": "ELISA, human beta-synuclein coated at 100 ng/ml", "excerpt": "(§4) For the positive control, RP-bound goat anti-rabbit was used as a detection antibody."}, "[10]": {"molecular_target": "T1, mouse IGF1R on bEND.3 brain endothelial …", "experiment": "FACS on bEND.3 mouse brain endothelial cells; MFI of secondary Ab only 3.20"}, "[11]": {"molecular_target": "T2, human alpha-synuclein aggregates …", "experiment": "BIAcore as in Example 4-3, α-syn aggregates", "description": "as §2"}, "[12]": {"molecular_target": "T7, human gamma-synuclein (human, UniProt O76070 1-127, limits assumed)", "T7 construct": "bought", "T7 sequence (O76070 whole entry)": "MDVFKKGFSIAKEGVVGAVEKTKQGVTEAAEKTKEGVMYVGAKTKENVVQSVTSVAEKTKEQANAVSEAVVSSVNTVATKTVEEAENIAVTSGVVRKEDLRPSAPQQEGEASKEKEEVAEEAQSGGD", "experiment": "ELISA, human gamma-synuclein coated at 100 ng/ml", "excerpt": "as §4"}, "[13]": {"molecular_target": "T2, human alpha-synuclein aggregates …", "experiment": "ELISA, alpha-synuclein aggregates coated, antibody titrated up to 400 nM; C of the 4-P fit", "description": "as §1"}, "[14]": {"molecular_target": "T8, Tau protein aggregates (UniProt P10636-8 1-441, limits assumed)", "T8 construct": "aggregates prepared by Prof; Seung-jae Lee; also called tau-derived aggregates", "T8 sequence (P10636 other isoform, or with tags, fused parts or gaps limits assumed)": "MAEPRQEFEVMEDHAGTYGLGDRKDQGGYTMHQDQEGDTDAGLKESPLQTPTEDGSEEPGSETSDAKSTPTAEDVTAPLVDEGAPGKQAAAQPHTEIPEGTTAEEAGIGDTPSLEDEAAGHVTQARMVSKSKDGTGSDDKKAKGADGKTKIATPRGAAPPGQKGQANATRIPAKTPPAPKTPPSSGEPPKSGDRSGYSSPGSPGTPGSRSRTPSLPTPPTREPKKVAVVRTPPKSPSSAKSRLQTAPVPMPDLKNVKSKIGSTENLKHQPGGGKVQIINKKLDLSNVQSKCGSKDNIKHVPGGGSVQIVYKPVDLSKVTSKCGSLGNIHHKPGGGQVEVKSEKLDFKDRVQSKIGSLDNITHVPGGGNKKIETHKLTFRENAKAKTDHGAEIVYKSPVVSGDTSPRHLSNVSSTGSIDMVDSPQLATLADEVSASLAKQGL", "experiment": "dot blot"}, "[15]": {"molecular_target": "T2, human alpha-synuclein aggregates …", "experiment": "sandwich ELISA, antibody coated 0.04-400 nM, fibril aggregates 2000 ng/ml", "description": "Specifically, each antibody was diluted at 1/10 ratio of concentrations 0.04 to 400 nM and was coated on a 96-well plate, and then each well was treated with synuclein fibril aggregates were treated at 2000 ng/ml. After washing with 1×PBS, streptavidin conjugated with HRP and secondary antibody conjugate with biotin was treated and then reacted with TMB as a substrate. The absorbance was measured."}, "[16]": {"molecular_target": "T3, human IGF1R extracellular domain, …", "experiment": "SPR (Biacore), human IGF1R ECD-His captured by anti-His antibody on CM4 chip, 1564-IgG as analyte, bivalent analyte fit, 25 C; lower panel", "description": "(§5) The anti-his antibody against the His tag bound to the human IGF1R ECD as an antigen was diluted to 20 μg/ml in acetate pH4.0 buffer, and then immobilized in the reference/analytic channel of the CM4 chip to 10,000 RU as a target RU according to the amine coupling method. During capture, PBS was used as a running buffer, and the flow rate was maintained at 30 μL/min. During association/dissociation, the flow rate was 40 μL/min, and PBS was used as the running buffer. The association/dissociation was 5 minutes and 20 minutes, respectively."}, "[17]": {"molecular_target": "T3, human IGF1R extracellular domain, …", "experiment": "SPR (Biacore), human IGF1R ECD-His captured by anti-His antibody on CM4 chip, 1564-IgG as analyte, bivalent analyte fit, 25 C; upper panel", "description": "as §5"}, "[18]": {"molecular_target": "T3, human IGF1R extracellular domain, …", "experiment": "ELISA, IGF1R coated, anti-human Fab-HRP", "description": "To this end, firstly, human, monkey, mouse and rat IGF1R antigens were diluted to 1 ug/ml, added to each well 100 ul, and reacted at 4° C. for 15 hours to be coated on the bottom of the plate. After removing the supernatant, 200 ul of PBS buffer containing 3% BSA was treated in each well to block non-specific binding. The anti-IGF1R antibodies were diluted by 5 times in PBSB (BSA 3% in PBS) at a maximum concentration of 400 nM, treated in each well, and reacted at 37° C. for 1 hour. Then, after washing with PBS buffer 5 times, the anti-human Fab HRP recognizing the Fab portion of the bound antibody was diluted 1:20000 was treated at 100 ul of each well, and reacted at 37° C. for 1 hour. The product was washed 5 times with PBS buffer and the color development was performed with TMB (Tetramethylbenzidine, Sigma, T0440) according to the manufacturer's method. […] When many samples are used in the ELISA analysis, the plates were divided into two."}, "[19]": {"molecular_target": "T3, human IGF1R extracellular domain, …", "experiment": "SPR (Biacore T200), His-tagged human IGF1R ECD captured by anti-His antibody on CM4 chip, bivalent model; 1564 IgG", "description": "as §5"}}}
{"binder": "B1", "values": [{"measurement": "binding result", "setting": "[1]", "result": "no binding"}, {"measurement": "EC50", "setting": "[2]", "result": 33.8, "unit": "nM"}, {"measurement": "koff", "setting": "[3]", "result": 0.000563, "unit": "s⁻¹"}, {"measurement": "kon", "setting": "[3]", "result": 609000, "unit": "M⁻¹ s⁻¹"}, {"measurement": "EC50", "setting": "[4]", "result": 201, "unit": "nM"}, {"measurement": "binding result", "setting": "[5]", "result": "no binding"}, {"measurement": "binding result", "setting": "[6]", "result": "no binding"}, {"measurement": "EC50", "setting": "[7]", "result": 196, "unit": "nM"}, {"measurement": "koff", "setting": "[8]", "result": "8.88e-05", "unit": "s⁻¹"}, {"measurement": "kon", "setting": "[8]", "result": 193000, "unit": "M⁻¹ s⁻¹"}, {"measurement": "binding result", "setting": "[9]", "result": "no binding"}, {"measurement": "MFI", "setting": "[10]", "result": 3.26}, {"measurement": "Kd", "setting": "[11]", "result": 0.0247, "unit": "nM"}, {"measurement": "binding result", "setting": "[12]", "result": "no binding"}, {"measurement": "EC50", "setting": "[13]", "result": 1.27, "unit": "nM"}, {"measurement": "binding result", "setting": "[14]", "result": "no binding"}, {"measurement": "EC50", "setting": "[15]", "result": 12.5, "unit": "nM"}]}
{"binder": "B2", "values": [{"measurement": "koff", "setting": "[16]", "result": "2.53e-06", "unit": "s⁻¹"}, {"measurement": "koff", "setting": "[17]", "result": "2.41e-06", "unit": "s⁻¹"}, {"measurement": "kon", "setting": "[17]", "result": 902, "unit": "M⁻¹ s⁻¹"}, {"measurement": "EC50", "setting": "[18]", "result": 0.0823, "unit": "nM"}, {"measurement": "MFI", "setting": "[10]", "result": 7.55}, {"measurement": "Kd", "setting": "[19]", "result": 2.53, "unit": "nM"}]}
